Our source for the Ki, fold more potent than ATP alone and fold better binding affinity than ATP values is patent US20110034670A1.

Test [1] addresses Lck. Briefly: steady-state kinetics, ATP-binding site, after UV exposure.
Test [2] deals with Src tyrosine kinase. Briefly: steady-state kinetics, radioactive kinase assay; ATP-binding site of Src.
For test [3], the target named is Src tyrosine kinase. The test can be described thus: steady-state kinetics, radioactive kinase assay; ATP-binding site.
Test [4] has as its target Lck. The description is as above.
Test [5] concerns the target Src tyrosine kinase. The test can be described thus: steady-state kinetics, Ki against Km of ATP.
For test [6], the target named is Lck. The test can be described thus: steady-state kinetics, radioactive kinase assay.
Chain of Lck (D3DPP8 whole entry): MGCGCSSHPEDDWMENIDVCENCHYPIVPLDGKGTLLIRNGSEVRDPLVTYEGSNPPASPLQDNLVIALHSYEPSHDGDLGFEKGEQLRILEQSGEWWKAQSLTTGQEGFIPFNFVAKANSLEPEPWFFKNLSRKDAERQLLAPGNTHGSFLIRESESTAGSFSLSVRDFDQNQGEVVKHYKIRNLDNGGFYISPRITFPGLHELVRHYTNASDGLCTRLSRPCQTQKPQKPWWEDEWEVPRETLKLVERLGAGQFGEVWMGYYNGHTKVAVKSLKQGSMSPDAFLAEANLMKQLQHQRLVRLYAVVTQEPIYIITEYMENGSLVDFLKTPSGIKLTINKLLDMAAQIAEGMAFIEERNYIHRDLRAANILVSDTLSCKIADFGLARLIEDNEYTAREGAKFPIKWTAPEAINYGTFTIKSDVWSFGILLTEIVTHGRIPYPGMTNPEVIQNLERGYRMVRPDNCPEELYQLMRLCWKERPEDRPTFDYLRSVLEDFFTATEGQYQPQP
For test [7], the target named is Lck. Briefly: steady-state kinetics, radioactive kinase assay; ATP-binding site of Lck.
Test [8] concerns the target Src tyrosine kinase. Briefly: radioactive Src kinase assay, catalytic activity inhibition.

By Ki is commonly meant a measure of affinity in units of concentration, obtained from inhibition or displacement. Turning to “ATP-1,13-Trioxa-SA-pTyr-γ-p-azidoGlu-Glu-Ile-OH (7) (peptide)”, the inhibitory constant (Ki) with Lck [1] is 29.8 µM; with Src tyrosine kinase [2], 1.7 to 2.6 µM; in the test with Src tyrosine kinase [3], 2.7 µM; with Lck [4] it was 30 µM.

“ATP-1,13-Trioxa-Suc-pTyr-Glu-Glu-Ile-OH (5) (peptide)” registered a fold more potent than ATP alone with Src tyrosine kinase [5] of 44 fold. Also, the fold better binding affinity than ATP with Lck [6] was determined as 3.9 fold. For the same substance, the Ki in the test with Lck [7] is 25.3 µM.

As for “H2N-1,13-Trioxa-Suc-pTyr-Glu-Glu-Ile-OH (16) (peptide)”, the inhibitory constant (Ki) in the test with Src tyrosine kinase [8] was 608 µM.
